One molecule from patent US20170015742A1 (published 2017) can be followed below.

As a reminder, the Kd is a measure of binding affinity in units of concentration. Broadly, the koff is a measure of how fast the partners let go of each other. Read a high koff as fast dissociation. As a reminder, the kon is the rate constant with which the complex forms. Low readings indicate slow association, high ones fast association.

Assay in all cases: SPR (Biacore), binding protein captured by anti-human Fc, antigen injected
Experiment [1] deals with T1, human VEGF 165 (PR-1350437) (human, UniProt P15692 207-395).
T1 construct: Purified recombinant protein; also called hVEGF165
How it is done:
(§1) Unreacted moieties on the biosensor surface were blocked with ethanolamine. For kinetic analysis, rate equations derived from the 1:1 Langmuir binding model were fitted simultaneously to multiple antigen injections (using global fit analysis) with the use of Scrubber 2 (BioLogic Software), Biacore Biaevaluation 4.0.1 software or Biacore T100 Evaluation software. Purified antibodies or DVD-Ig molecules were diluted in running buffer for capture across goat anti-human Fc reaction surfaces. Antibodies or DVD-Ig molecules to be captured as a ligand (1 μg/ml) were injected over reaction matrices at a flow rate of 10 μl/minute. During the assay, all measurements were referenced against the capture surface alone (i.e., with no captured antibody or DVD-Ig molecule). […] The equilibrium dissociation constant KD (M) of the reaction between antibodies and the target antigen was then calculated from the kinetic rate constants by the following formula: KD=Koff/Kₒₙ. Binding was recorded as a function of time and kinetic rate constants were calculated. In this assay, on-rates as fast as 10⁶M⁻¹s⁻¹ and off-rates as slow as 10⁻⁶ s⁻¹ could be measured.

Experiment [2] has as its target T2, human VEGF 121 (PR-1515941) (human, UniProt P15692 207-395).
T2 construct: Recombinant isoform; also called hVEGF121
T2 sequence: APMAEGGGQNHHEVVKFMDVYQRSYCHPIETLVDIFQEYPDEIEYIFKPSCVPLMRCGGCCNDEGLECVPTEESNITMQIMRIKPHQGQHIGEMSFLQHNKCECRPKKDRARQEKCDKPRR
How it is done: as §1

The target of experiment [3] is T3, mouse PDGF-B (PR-1577160) (mouse, UniProt P31240 82-190).
T3 construct: Recombinant; also called mouse PDGF-BB; mPDGF-BB
How it is done: as §1

Experiment [4] addresses T4, human VEGF 111 (PR-1520687) (human, UniProt P15692-10 27-137).
T4 construct: also called hVEGF111
T4 sequence (looked up): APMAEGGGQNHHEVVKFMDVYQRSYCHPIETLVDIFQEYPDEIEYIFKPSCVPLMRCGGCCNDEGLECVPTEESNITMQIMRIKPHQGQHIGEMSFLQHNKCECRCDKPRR
How it is done: as §1

The target of experiment [5] is T5, human PDGF-B (PR-1373790) (human, UniProt P01127 82-190).
T5 construct: Soluble recombinant PDGF-BB homodimer; also called human PDGF-BB; hPDGF-BB
How it is done: as §1

The target in the next experiment is T6, cyno PDGF-B (PR-1575400) (cynomolgus monkey, UniProt P01127 82-190 (human entry), limits assumed).
T6 construct: Recombinant; also called cynomolgus monkey PDGF-BB; cynoPDGF-BB
T6 chain: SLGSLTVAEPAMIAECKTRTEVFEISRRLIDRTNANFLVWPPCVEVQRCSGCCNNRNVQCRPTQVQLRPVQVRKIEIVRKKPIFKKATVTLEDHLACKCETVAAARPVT
How it is done: as §1

T3 sequence (P31240 82-190 limits assumed): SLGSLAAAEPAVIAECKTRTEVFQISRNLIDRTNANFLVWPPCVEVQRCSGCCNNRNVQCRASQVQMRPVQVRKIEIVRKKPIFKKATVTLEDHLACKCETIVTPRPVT

B1: 9E10.1-GS-33675 anti-VEGF/anti-PDGF DVD-Ig (PR-1610561) (bispecific antibody, human IgG1, kappa, L234A L235A)
heavy: EIQLVQSGSELKKPGASVKVSCKASGYTFTNYGMYWVKQAPGQGLEYMGWIDTETGRPTYADDFKGRFVFSLDTSVSTAYLQISSLKAEDTAVYFCARWSGDTTGIRGPWFAYWGQGTLVTVSSGGGGSGGGGSEVTLRESGPALVKPTQTLTLTCTFSGFSLSTYGMGVGWIRQPPGKALEWLANIWWDDDKYYNPSLKNRLTISKDTSKNQVVLTMTNMDPVDTATYYCARIESSGPKYSFDYWGQGTMVTVSSASTKGPSVFPLAPSSKSTSGGTAALGCLVKDYFPEPVTVSWNSGALTSGVHTFPAVLQSSGLYSLSSVVTVPSSSLGTQTYICNVNHKPSNTKVDKKVEPKSCDKTHTCPPCPAPEAAGGPSVFLFPPKPKDTLMISRTPEVTCVVVDVSHEDPEVKFNWYVDGVEVHNAKTKPREEQYNSTYRVVSVLTVLHQDWLNGKEYKCKVSNKALPAPIEKTISKAKGQPREPQVYTLPPSREEMTKNQVSLTCLVKGFYPSDIAVEWESNGQPENNYKTTPPVLDSDGSFFLYSKLTVDKSRWQQGNVFSCSVMHEALHNAYTQKSLSLSPGK
light: DIRMTQSPSSLSASVGDRVTIECLASEDIYSDLAWYQQKPGKSPKLLIYNANGLQNGVPSRFSGSGSGTDYSLTISSLQPEDVATYFCQQYNYFPGTFGQGTKLEIKGGSGGGGSGGEIVLTQSPGTLSLSPGERATLSCRASSGSIWYSFVSWYQQKPGQAPRLLIYADDQRASGIPDRFSGSGSGTDFTLTISRLEPEDFAVYYCQSYGINIDVVFGGGTKVEIKRTVAAPSVFIFPPSDEQLKSGTASVVCLLNNFYPREAKVQWKVDNALQSGNSQESVTEQDSKDSTYSLSSTLTLSKADYEKHKVYACEVTHQGLSSPVTKSFNRGEC
notes: DVD-Ig: outer domain hBEW-9E10.1 (VEGF), inner domain CL-33675 (PDGF), linkers GS-H10 / GS-L10(dR), human IgG1 L234A, L235A, H435A, kappa; Lot 2213329; also called hu VEGF 9E10.1-GS-hu PDGF 33675 [hu IgG1/k]; LALA H435A
As for B1, the dissociation constant (Kd) in experiment [1] is 0.065 nM; in experiment [2], 0.23 nM; in experiment [3], not above 0.0052 nM; in experiment [4], 0.29 nM; in experiment [5], not above 0.0052 nM; with cyno PDGF-B (PR-1575400) it was not above 0.00081 nM. Further, the koff in experiment [1] stood at 3.4e-05 s⁻¹; in experiment [2], 4.1e-05 s⁻¹; in experiment [3] it was 5.2e-05 s⁻¹; in experiment [4], 4.3e-05 s⁻¹; in experiment [5], 5.2e-05 s⁻¹; with cyno PDGF-B (PR-1575400), 8.1e-06 s⁻¹. Further, the kon in experiment [1] was 520000 M⁻¹ s⁻¹; in experiment [2], 180000 M⁻¹ s⁻¹; in experiment [3], not below 1e+07 M⁻¹ s⁻¹; in experiment [4], 150000 M⁻¹ s⁻¹; in experiment [5], not below 1e+07 M⁻¹ s⁻¹; in the experiment with cyno PDGF-B (PR-1575400), not below 1e+07 M⁻¹ s⁻¹.
